B1: EMD (parent)
chain: YQSKGYNDDYYEESYFTTRTYGEP

Variants of: B1
Experiment: protein stability index of a GFP-peptide fusion (GPS, HEK-293T) (PSI 1-6); higher = more stable
Settings: c terminus: a fixed tail appended
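Note: lentivirally expressed fusions sorted by FACS into six bins by GFP to DsRed ratio, PSI derived from sequencing read proportions per bin multiplied by bin number.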

Row | Variant | protein stability index
1 | YQSKGYNDDYYEESYTTTRTYGEP [F16T] | 3.14
2 | YQSKGYNDDYYEESYMTTRTYGEP [F16M] | 2.91
3 | YQSKGYNDDYYEESYYTTRTYGEP [F16Y] | 2.28
4 | YQSKGYNDDYYEESYCTTRTYGEP [F16C] | 3.12
5 | YQSKGYNDDYYEESYGTTRTYGEP [F16G] | 3.26
6 | YQSKGYNDDYYEESYPTTRTYGEP [F16P] | 3.19
7 | YQSKGYNDDYYEESYKTTRTYGEP [F16K] | 3.15
8 | YQSKGYNDDYYEESYSTTRTYGEP [F16S] | 2.88
9 | YQSKGYNDDYYEESYETTRTYGEP [F16E] | 3.64
10 | YQSKGYNDDYYEESYDTTRTYGEP [F16D] | 3.47
11 | YQSKGYNDDYYEESYQTTRTYGEP [F16Q] | 3.1
12 | YQSKGYNDDYYEESYATTRTYGEP [F16A] | 3.2
13 | YQSKGYNDDYYEESYLTTRTYGEP [F16L] | 3.38
14 | YQSKGYNDDYYEESYITTRTYGEP [F16I] | 2.95
15 | YQSKGYNDDYYEESYNTTRTYGEP [F16N] | 3.59
16 | YQSKGYNDDYYEESYRTTRTYGEP [F16R] | 2.69
17 | YQSKGYNDDYYEESYWTTRTYGEP [F16W] | 1.45
18 | YQSKGYNDDYYEESYHTTRTYGEP [F16H] | 3.08
19 | YQSKGYNDDYYEESYVTTRTYGEP [F16V] | 2.85
20 | YQSKGYNDDYYEEGYFTTRTYGEP [S14G] | 2.37
21 | YQSKGYNDDYYEEFYFTTRTYGEP [S14F] | 1.78
22 | YQSKGYNDDYYEEYYFTTRTYGEP [S14Y] | 2.28
23 | YQSKGYNDDYYEEQYFTTRTYGEP [S14Q] | 2.34
24 | YQSKGYNDDYYEEEYFTTRTYGEP [S14E] | 2.83

Row | Variant | protein stability index
25 | YQSKGYNDDYYEEDYFTTRTYGEP [S14D] | 2.44
26 | YQSKGYNDDYYEEMYFTTRTYGEP [S14M] | 2.26
27 | YQSKGYNDDYYEERYFTTRTYGEP [S14R] | 1.9
28 | YQSKGYNDDYYEEKYFTTRTYGEP [S14K] | 2.16
29 | YQSKGYNDDYYEEAYFTTRTYGEP [S14A] | 1.88
30 | YQSKGYNDDYYEEPYFTTRTYGEP [S14P] | 2.62
31 | YQSKGYNDDYYEELYFTTRTYGEP [S14L] | 2.08
32 | YQSKGYNDDYYEECYFTTRTYGEP [S14C] | 1.77
33 | YQSKGYNDDYYEETYFTTRTYGEP [S14T] | 2.38
34 | YQSKGYNDDYYEENYFTTRTYGEP [S14N] | 2.35
35 | YQSKGYNDDYYEEHYFTTRTYGEP [S14H] | 2.13
36 | YQSKGYNDDYYEEWYFTTRTYGEP [S14W] | 2.29
37 | YQSKGYNDDYYEEVYFTTRTYGEP [S14V] | 2.19
38 | YQSKGYNDDYYEEIYFTTRTYGEP [S14I] | 1.76
39 | YQSKGYNDDYYEVSYFTTRTYGEP [E13V] | 1.71
40 | YQSKGYNDDYYEASYFTTRTYGEP [E13A] | 1.95
41 | YQSKGYNDDYYESSYFTTRTYGEP [E13S] | 2.16
42 | YQSKGYNDDYYEWSYFTTRTYGEP [E13W] | 1.83
43 | YQSKGYNDDYYEGSYFTTRTYGEP [E13G] | 2
44 | YQSKGYNDDYYETSYFTTRTYGEP [E13T] | 2.29
45 | YQSKGYNDDYYEPSYFTTRTYGEP [E13P] | 1.74
46 | YQSKGYNDDYYEKSYFTTRTYGEP [E13K] | 1.67
47 | YQSKGYNDDYYEISYFTTRTYGEP [E13I] | 1.67
48 | YQSKGYNDDYYEDSYFTTRTYGEP [E13D] | 2.42

Row | Variant | protein stability index
49 | YQSKGYNDDYYEQSYFTTRTYGEP [E13Q] | 1.87
50 | YQSKGYNDDYYEMSYFTTRTYGEP [E13M] | 2.68
51 | YQSKGYNDDYYELSYFTTRTYGEP [E13L] | 1.93
52 | YQSKGYNDDYYERSYFTTRTYGEP [E13R] | 1.82
53 | YQSKGYNDDYYEYSYFTTRTYGEP [E13Y] | 1.91
54 | YQSKGYNDDYYEHSYFTTRTYGEP [E13H] | 1.47
55 | YQSKGYNDDYYENSYFTTRTYGEP [E13N] | 1.64
56 | YQSKGYNDDYYEFSYFTTRTYGEP [E13F] | 3.37
57 | YQSKGYNDDYYECSYFTTRTYGEP [E13C] | 1.53
58 | YQSKGYNDDYYTESYFTTRTYGEP [E12T] | 2.2
59 | YQSKGYNDDYYVESYFTTRTYGEP [E12V] | 1.71
60 | YQSKGYNDDYYQESYFTTRTYGEP [E12Q] | 1.86
61 | YQSKGYNDDYYHESYFTTRTYGEP [E12H] | 1.52
62 | YQSKGYNDDYYPESYFTTRTYGEP [E12P] | 2.12
63 | YQSKGYNDDYYLESYFTTRTYGEP [E12L] | 2.14
64 | YQSKGYNDDYYRESYFTTRTYGEP [E12R] | 1.73
65 | YQSKGYNDDYYNESYFTTRTYGEP [E12N] | 1.95
66 | YQSKGYNDDYYSESYFTTRTYGEP [E12S] | 2.33
67 | YQSKGYNDDYYKESYFTTRTYGEP [E12K] | 2.33
68 | YQSKGYNDDYYIESYFTTRTYGEP [E12I] | 2.38
69 | YQSKGYNDDYYYESYFTTRTYGEP [E12Y] | 1.79
70 | YQSKGYNDDYYWESYFTTRTYGEP [E12W] | 2.19
71 | YQSKGYNDDYYMESYFTTRTYGEP [E12M] | 2.26
72 | YQSKGYNDDYYEESRFTTRTYGEP [Y15R] | 2.75

Row | Variant | protein stability index
73 | YQSKGYNDDYYEESHFTTRTYGEP [Y15H] | 2.9
74 | YQSKGYNDDYYEESNFTTRTYGEP [Y15N] | 3.06
75 | YQSKGYNDDYYEESCFTTRTYGEP [Y15C] | 2.37
76 | YQSKGYNDDYYEESPFTTRTYGEP [Y15P] | 2.35
77 | YQSKGYNDDYYEESSFTTRTYGEP [Y15S] | 2.96
78 | YQSKGYNDDYYEESVFTTRTYGEP [Y15V] | 2.62
79 | YQSKGYNDDYYEESGFTTRTYGEP [Y15G] | 2.96
80 | YQSKGYNDDYYEESTFTTRTYGEP [Y15T] | 2.8
81 | YQSKGYNDDYYEESEFTTRTYGEP [Y15E] | 3.41
82 | YQSKGYNDDYYEESMFTTRTYGEP [Y15M] | 2.42
83 | YQSKGYNDDYYEESQFTTRTYGEP [Y15Q] | 2.91
84 | YQSKGYNDDYYEESDFTTRTYGEP [Y15D] | 3.64
85 | YQSKGYNDDYYEESKFTTRTYGEP [Y15K] | 2.63
86 | YQSKGYNDDYYEESLFTTRTYGEP [Y15L] | 2
87 | YQSKGYNDDYYEESAFTTRTYGEP [Y15A] | 2.92
88 | YQSKGYNDDYYEESIFTTRTYGEP [Y15I] | 2.11
89 | YQSKGYNDDYYEESWFTTRTYGEP [Y15W] | 2.24
90 | YQSKGYNDDYYEESFFTTRTYGEP [Y15F] | 1.69
91 | YQSKGYNDDYYEESYFDTRTYGEP [T17D] | 3.19
92 | YQSKGYNDDYYEESYFATRTYGEP [T17A] | 2.36
93 | YQSKGYNDDYYEESYFETRTYGEP [T17E] | 3.02
94 | YQSKGYNDDYYEESYFCTRTYGEP [T17C] | 1.96

Reference: the supplement of paper PMC10567573
